Laboratory results: patent publication US20110076265A1 (POMONA RICERCA S R L, published 2011)

Columns and labels:
[1] = target: Hemagglutinin of influenza B virus B/Lee/40 (influenza B virus B/Lee/40, UniProt P03460 16-584); assay: immunofluorescence on fixed, permeabilized infected cells
[2] = target: T1, H3-subtype hemagglutinin of influenza A virus A/Aichi/2/68 (H3N2) (influenza A virus A/Aichi/2/68 (H3N2), UniProt P03437 17-566); assay: as above
T1 construct: also called A/Aichi/2/68 (ATCC VR-547)

[3] = target: HA protein (H1-subtype hemagglutinin) of influenza A virus A/PR/08/1934 (influenza A virus A/PR/08/1934 (H1N1), UniProt P03452 18-565); assay: immunofluorescence on fixed, permeabilized infected cells, Fab49 at 100 µg/ml
[4] = target: H1-subtype hemagglutinin of influenza A virus A/Wilson-Smith/33 (influenza A virus A/Wilson-Smith/33 …, UniProt P03454 18-565); assay: ELISA, sequential dilutions of purified Fab on infected cell lysates

B1: Fab49 (human monoclonal Fab fragment produced by bacterial clone INF49) (Fab, V domains shown)
VH: LESGGGLVQPGGSLRLSCAASGITFSSYAMSWVRQAPGKGLEWVSTVNSGGGSTYYGDSVRGRFTISRDNSKSTLYLQLNSLRAEDTAIYYCAKDKGRPIFGLVTPSYYMDVWGNGT
VL: ELTQSPSSLSASVGDSVTITCRTSERISTYLNWYQQKPGKAPRLLVSGASTLQGGVPSRFSGSGSGTAFTLTINSLQPEDFATYYCQQSYSTPLTFGGGT
- binding result [1]: no binding (tested: 100 µg/ml)
- binding result [2]: no binding (tested: 100 µg/ml)
- binding result [3]: binds
- binding result [4]: binds
